This passage reports Kd results from PMC7264293, “Multi-site-mediated entwining of the linear WIR-motif around WIPI β-propellers for autophagy” (Nature Communications, 2020).

The assay has as its target WIPI3-Δloop (human), Q5MNZ6. In words: ITC; WIPI3 proteins in the sample cell, GB1-tagged ATG2A fragments in the syringe; 25 °C; 50 mM Tris-HCl pH 8.0, 100 mM NaCl, 1 mM EDTA, 1 mM DTT; model of one binding site. For orientation: Isothermal titration calorimetry measures the heat released or taken up as one component is titrated into another.

Sequence of WIPI3-Δloop (human), Q5MNZ6 (Q5MNZ6 other isoform, or with tags, fused parts or gaps mutant): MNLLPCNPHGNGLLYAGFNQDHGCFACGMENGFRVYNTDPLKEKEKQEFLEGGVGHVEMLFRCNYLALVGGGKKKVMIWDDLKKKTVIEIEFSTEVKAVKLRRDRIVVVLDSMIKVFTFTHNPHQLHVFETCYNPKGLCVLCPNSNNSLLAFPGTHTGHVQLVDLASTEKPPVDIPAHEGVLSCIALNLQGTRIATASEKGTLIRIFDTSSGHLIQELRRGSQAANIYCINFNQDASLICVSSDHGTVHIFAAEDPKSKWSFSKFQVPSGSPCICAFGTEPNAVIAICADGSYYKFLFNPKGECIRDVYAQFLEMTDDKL

B1: GB1-tagged WIR-peptide ΔN-strand (peptide)
chain: GPIVVRDGYFSRPIGSTD
modifications: not checked
As for B1, the Kd (as a rule, the constant that tells how readily two partners part at equilibrium) is 64.3 µM.
